Measured values published in the nanobody polyreactivity screen of Harvey et al. (2022).

Assay: yeast display, Sf9 membrane polyspecificity reagent, FACS + sequencing; frameworks hold sequencing errors
Summary of the method: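 Genes from sorted yeast were amplified by colony PCR, read by MiSeq 2 × 250 sequencing and filtered on CDR length. These cells carried a synthetic nanobody library in Saccharomyces cerevisiae BJ5465 and were sorted by FACS into low and high (top ~1%) gates on anti-HA and streptavidin fluorescence. Polyreactivity is labelled according to the gate of origin.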

| Sequence | polyreactivity (PSR sort gate) |
| --- | --- |
| QVQLEESGGALVQAGGSLRISCAASGSTFYYNAMGWYRQAPGKERELVAVITLNGGRTSYADSVKGRFTISRDNAKNTVYLQMNSLKPEDSAVYYCAADRYRGYGYWGQGTQVTVSS | low polyreactivity |
| QVQLEESGGGIVQAGGSLRLSCAASGRTFVTNAMGWYRKAPGKERELVATINWSGGRTHYADSVKGRFTISRDNAKNTVYLQMNSLKPEDTAVYYCAKASSRRYWTIRDGDYWGQGTQVSVSS | low polyreactivity |
| QVQLEESGGGIVQAGGSLRLSCDASGRIFVQYAIGCYRQEPGKEMELVAAISGSGGRTYYADSVKGSFTISRDTAKNTVYLQMNSLKPEDTAVYYCAARYTTGLSFWKPYYYWGQGTQVTVSS | high polyreactivity |
| QVQLEESGGGLDQAGGSLRLSCAASAIIFALYARGWYSQARGKHRELVATITYSGGSTNYADSLKGRYTISRDNAKNPVYLLMHSLKPEDTAVYYCAAASVPWGGYYSGQGTQVTVSS | low polyreactivity |
| QVQLEESGGGLLQAGGSHSLSCAASGSTFYKYGMVWYRQAPGKEREFVAAISGSGDSTYYADSVKGRFTISRDNAKNTVYLHMNRLKPEDTAVYYCNAGPWWYLHEYDYWGQGTQVNVSS | low polyreactivity |
| QVQLEESGGGLVHAGGILRLSCAASGYTFYYNAMGWYRQAPGKERELVAAISRSRDTTYYADSVKGRFTISRDNAKYTVYLQMYSLKPEDTEVYYCNAVVQVLADFQKYDYWGQGSQVTVSS | low polyreactivity |
| QVQLEESGGGLVHAGGSLRLSSAASGYTFKYYALACYRQAPGKERELVAAISARGGSTYYADSVKGRFTISRDNAKNTVYLQMNSVKPEDTAVYFCAARSGYGPYRMDYWGQGTQVTVSS | high polyreactivity |
| QVQLEESGGGLVQAGCSLRLTCAASGSTFYSYPMGWSRQAPGKERELVAAITVSGTSTYYADSVKGRFTISRDNAKNTVYLQMYSVKPEDTAVYYCAADRRTDGHDYWGQGTQVTVSS | high polyreactivity |
| QVQLEESGGGLVQAGGRIRLSCAASGRIFHGYAMGWYRQAPGKERELVAAISWRGDSTYYADSVKGRFTNSRDNAKNTVYLQMNSLKPEDTAVYYCNDLGENYQFNYWGLGTQVTVSS | low polyreactivity |
| QVQLEESGGGLVQAGGRLRISCAASGRTFLCYAMGWSRQAPGKERELLAAISKSGGSTYYADSVKGRFTISRDNAKNTVYLQMNSLKPQDTAVYYCAVEVDVYTFSEFYYWGQGTQVTVSS | high polyreactivity |
| QVQLEESGGGLVQAGGRLRLSCAASGRTITRNAMGWYRQAPGKERELVAAISSRGGSTSYADSVKGRFTISRDNAKNTFYLQMNSLKPEDTAVYYCNKKTAASDYDYWGQGTQVTVSS | high polyreactivity |
| QVQLEESGGGLVQAGGRLRLSCAASGSILTAYAMGWYRQAPGKERELVAASNFSGDNTYYADSVKGRFTISRDNAKNTVYLQMNSLKPQDTALYYCNADGRYAYVWYDYWGQGTQVTVSS | low polyreactivity |
| QVQLEESGGGLVQAGGRLRLSCSASGFICGSNAMGWYRQAPGKERELVAAISARGGSTYYADSVKGRFTISRDNAKNPVYLQMNSLKPEDTAVYYCNTGTSGRFLSFGNFDYWGQGTQVTVSS | high polyreactivity |
| QVQLEESGGGLVQAGGRLRLTCAASGFIFKLYAMGWYRQAPGKERELVAAISGNGGRTYYADSVKGRFTISRDNAKNTVYLQMNSLKPEDTAVDYCAARYVGVQRYYEFDYWGQGTQVTVSS | high polyreactivity |
| QVQLEESGGGLVQAGGSHRLSCAASGRTFGAYAMGWYLQAPGKEREVVAAITYRGASTYYADSVKGRFTISRDNAMYTVYLQMNSLITEDTAVYSCAAEGSIKYFVGYNWGYNYWGQGSQVTVSS | low polyreactivity |
| QVQLEESGGGLVQAGGSIRLSCAASGSIFYKYVMGCYRQAPGKERELVAAISRGGGSTYYADSVKGRFTISRDNSKNTVYLQMNSLKPEDTAVYYCNAVVRPRYGHGFDHWGQGTQVTVSS | high polyreactivity |
| QVQLEESGGGLVQAGGSLRISCAAAGSTFRSNAMGWYRPAPRKERELVAAINSGGSTYYADSVKGRFTISRDNAKNTVYLQMNSLKPEDTAVYYCAARYYTPFGTYRQNIRMYYWGQGTQVTVSS | high polyreactivity |
| QVQLEESGGGLVQAGGSLRISCAASGFIYRDYDMGWYRQAPGKERELVAAISLSGGSTYYADSVKGRFTISRDNAKNTVYLQMNSLKPEDTAVYYCAAVSAYEGNYWGQGTQVTVSS | high polyreactivity |
| QVQLEESGGGLVQAGGSLRLCCAASGSTFWAYVMGWYRQAPGKEMELVAAISKSGVRTHYADSVKGRFTISRDNAKNTVYLQMNSRKPEDTAVYYSAAGGVGNLDDYWGQGTQVTVSS | high polyreactivity |
| QVQLEESGGGLVQAGGSLRLICAASAMGRYRQAPGKERELVAVINSTGGSTYYADSVKGRFTISRDNAKNTVYLQMYSLKPDDTAVYYCARVTRRGPGYTTLYCRYDYWGQGTQVTVSS | low polyreactivity |
| QVQLEESGGGLVQAGGSLRLICAASGIFFIYAMGWYRQARGKERELVADIDSGGPTYYADSVKGRFTISRDNAKNTVYLQMNRLQPEDTAVYYCAFDYSNVDLYSLLFYESDYWGQGTQVTVSS | low polyreactivity |
| QVQLEESGGGLVQAGGSLRLICAASGIIFLFYALGWYRQAPGKERELVASITWSGGSTYYADSVKGRFTISRDNAKNTVYLQMNSLKPEDTAVYYCAASVKIISYLVHSEFLGGELDYWGQGTHVTVSS | low polyreactivity |

| Sequence | polyreactivity (PSR sort gate) |
| --- | --- |
| QVQLEESGGGLVQAGGSLRLICAASGIIFRLNAMGWYRQATGQDRELVAAIRRRGGSTYYADSVKGRFTISRDNAKNTVYLQMNSLKPEDTAVYYCNARYLRMRYPYTDEYNYWGQGTQVTVSS | low polyreactivity |
| QVQLEESGGGLVQAGGSLRLICAASGSTFGDNAMGWSRQAPGKEGEFVAGISTNGGSTYYADSVKGRFTISRDNAKNTFYLQMNSLKPEDIAVYSCAAVNYYDQYGDYYWGQGTQVTVSS | low polyreactivity |
| QVQLEESGGGLVQAGGSLRLICAASGSTFIYNAMGWYRQAPGKERELVAAISARTGNTYYADSVKGRFTISRDNAKNTVYLQMNSLKPEDTAVYYCARRGFPRGGGPSRYYWYDYWGQGTQVTVSS | high polyreactivity |
| QVQLEESGGGLVQAGGSLRLSCAAAGLTFDVYAMGWYRPAPGNEMELVAAISSIGGSTYYADSVKGRFTISRDNAKNNVYLQMYSLKPEDTAVYYCSAAISLYSYDYWGQGTQVTVSS | low polyreactivity |
| QVQLEESGGGLVQAGGSLRLSCAASGFIFLDYAMGWYRQAPGKERELVAAISSRGARTYYADSVKGRFTISRDNAKNTVYLQMNSLKPEDTAVYYCAARGPLDRYGYWGQGTQVTVSS | high polyreactivity |
| QVQLEESGGGLVQAGGSLRLSCAASGFIFSSNAKGWYRQAPGKERELVAAISSSGGRTYYADSVKGRFTISRDNAKNPVYLQMNSLIPEYTAVYYCNADPRSLGSANDWGQGTQVTVSS | high polyreactivity |
| QVQLEESGGGLVQAGGSLRLSCAASGFIFSWYAMGWYRQAPGKERELVARISSSGGNTYYADSVKGRFTISRDNAKNTVYLQMNSLKPEDTAVYYCAATRYSLSGYGYWGQGTQVTVSS | high polyreactivity |
| QVQLEESGGGLVQAGGSLRLSCAASGFTFERNAMGWYRQAPGKERELVAAISWSGGSTYYADSVKGRFTISRDNAKNTVYLQMNSLKPEDTAVYYCAAYQWGYWYGYRMDYWGQGTQVTVSS | high polyreactivity |
| QVQLEESGGGLVQAGGSLRLSCAASGFTFGRYPLGWYRQAPGKERELVAAITRGSGGTYYADSVKGRFTISRDNAKNTVYLQMNSLKPEDTAVYYCNTASYRGYDYWGQGTQVTVSS | high polyreactivity |
| QVQLEESGGGLVQAGGSLRLSCAASGFTFRYYAMGRYRQAPGKVRELVAVISRTGGSTNFADSVKGRFTISRDNAKKTVYLQMNSLKPEDTAVYYCNAVARYQTKYRYEYWGQGTQETVSS | high polyreactivity |
| QVQLEESGGGLVQAGGSLRLSCAASGFTFSPNAMGWYRQAPGKVRELVAAIDWIGGSTYYADSVKWRFTISRDNAKNTVYLQMKSLNTEDTAVYLCTADWVYWHYLTYLVTFDYWGQGTQVTVSS | low polyreactivity |
| QVQLEESGGGLVQAGGSLRLSCAASGFTFSRNAMGWYRKAPGKERQLVARISSRGGSTYYADSVKGRFTISRDNAKKTVYLQMNSLKPEDTAVYYCARDPVGTTAARYNYWGQGTQVTVSS | high polyreactivity |
| QVQLEESGGGLVQAGGSLRLSCAASGFTFTPNAMGWYRQAPGKERELVAAINWSGGRTYYADSVKGRFTISRDNAKNTVYLQMNSLKPEDTAVYYCNVLKGRSYYPGMDYWGQGTQVTVSS | high polyreactivity |
| QVQLEESGGGLVQAGGSLRLSCAASGFTFVDYVMGWYRQAPGKERELVAAISRRAGRTYYADSVKGRFTNSRDNAKNTVYFQMNSLKREDTAVYSCAAYLSRSYYAYDYWGQGTQVTVSS | high polyreactivity |
| QVQLEESGGGLVQAGGSLRLSCAASGFTFVPYAMGWYRQAPGKERELVARITWSGGSTYYADSVKGRFTISRDNAKNTVYLQMNSLKPEDTAVYYCNLDTRYPGYWRVFAKNNYWGQGTQVTVSS | high polyreactivity |
| QVQLEESGGGLVQAGGSLRLSCAASGFTFYLYAMGWYRQAPGKERELVASISSGGRTYYADSVKGRFTISRDNAKNTVYLQMNSLKPEDTAVYYCAVSPYSRRKYEYYYWGQGTQVTVSS | high polyreactivity |
| QVQLEESGGGLVQAGGSLRLSCAASGFTIGYNAKGWYRQATRKERELVAAIRSTGSTNYADSVKGRFTISRDYAKNTVYLQMNSLKPEDTAVYYGAAGRNAAIVYDYDYWGQGTQVTVSS | low polyreactivity |
| QVQLEESGGGLVQAGGSLRLSCAASGFTLDTYAMGWYRQAPGKERELVAAITSRGGTTYYADSVKGRFTISRDNAKNTVYLQMNSLKPEDTAVYYCNAVTKRWWYRTGYGYWGQGTQVTVSS | high polyreactivity |
| QVQLEESGGGLVQAGGSLRLSCAASGFTLRGYAMGWYRQAPGKERELVAAINGGGSTYYADSVKGRFTISRDNAKNTVYLQMNSLKPEDTAVYYCAVRIRKTAFRVLRYNYWGQGTQVTVSS | high polyreactivity |
| QVQLEESGGGLVQAGGSLRLSCAASGGTFDEYAMGWSRQAPGKERELVATISWNSGSTYYADSVKGRFTISRDNAKNTVYLQMNSLKPEDTAVYYCATGRNVGVWSDDYWGQGTQVTVSS | high polyreactivity |
| QVQLEESGGGLVQAGGSLRLSCAASGGTFGWYAMGWYRPAPGTERELVAAITSSGGTTFYADSVKGRFTISRDTAKNTVYLQMNSLKPEDTAVYYCAKRGKRPTRYKLGKYDYWGQGTQVTVSS | high polyreactivity |
